Laboratory results: patent US20200231681A1 (CHONG KUN DANG PHARMACEUTICAL, published 2020)

Legend:
[1] = biological target: T1, human IGF-I R (R&D systems, 391-GR-050) (human, UniProt P08069 31-932); assay: indirect ELISA, hu8C4 at 1.200 nM
Experimental: (§1) Each antigen was diluted in 0.05 M carbonate-bicarbonate (Sigma, C3041) buffer at a concentration of 1 μg/ml, after which the resulting antigen was added into each well of a 96-well plate (Corning, #2592), such that the resulting plate was coated at 4° C. overnight. The plate was washed once with TBS-T, after which TBS-T containing 4%—skim milk was added by 200 μl into each well of the resulting plate in order to inhibit a non-specific binding, such that the resulting plate was reacted at 37° C. for 1 hour. Then, the plate was washed once with TBS-T buffer, after which a primary antibody was sequentially diluted in TBS-T buffer containing 2%—skim milk from a highest concentration of 30 nM to 0.002 nM, such that the resulting antibody was added by 100 μk into each well, thus being reacted at 37° C. for 2 hours. After being washed three times with TBS-T buffer, an anti-human kappa light chains-peroxidase (Sigma, A7164) was diluted at a ratio of 1:5000 as a secondary antibody, after which the resulting antibody was added by 100 μl into each well, thus being reacted at 37° C. for 1 hour. Then, after being washed three times with TBS-T buffer, TMB solution (Sigma, T4444) was added by 100 μl into each well to carry out an color developing reaction, after which 2 N […] solution was added by 50 μl into each well to stop the reaction. An optical density was measured based on a value at a wavelength of 450 nm by using a microplate reader and a reference wavelength of 570 nm was used.

[2] = biological target: T2, human MSP R/Ron (R&D systems, 1947-MS-050) (human, UniProt Q04912 25-571, limits assumed); assay: indirect ELISA, hu8C4 at 1.200 nM
Experimental: as §1

[3] = biological target: T3, human VEGF R2 Fc chimera (R&D systems, 357-KD_CF) (human, UniProt P35968 20-764); assay: indirect ELISA, hu8C4 at 1.200 nM
T3 construct: also called VEGFR R2
Experimental: as §1

[4] = biological target: T4, human PDGF Rβ Fc chimera (R&D systems, 385-PR_CF) (human, UniProt P09619 33-530); assay: indirect ELISA, hu8C4 at 1.200 nM
Experimental: as §1

[5] = biological target: T1, human IGF-I R (R&D systems, 391-GR-050); assay: indirect ELISA, hu8C4 at 6.000 nM
Experimental: as §1

[6] = biological target: T2, human MSP R/Ron (R&D systems, …); assay: indirect ELISA, hu8C4 at 6.000 nM
Experimental: as §1

[7] = biological target: T3, human VEGF R2 Fc chimera (R&D systems, …); assay: indirect ELISA, hu8C4 at 6.000 nM
Experimental: as §1

[8] = biological target: T4, human PDGF Rβ Fc chimera (R&D systems, …); assay: indirect ELISA, hu8C4 at 6.000 nM
Experimental: as §1

[9] = biological target: T5, cynomolgus monkey c-Met ECD (SiNo. Biological, 90304-CO8H) (cynomolgus monkey, UniProt A0A2K5UM36 25-932); assay: SPR (BIAcore), antibody captured by anti-human IgG Fc, antigen as analyte, 1:1 Langmuir
T5 construct: not shown: The vendor's tag
Experimental: (§2) The antibodies were diluted in HBS-EP buffer (0.01 M HEPES pH 7.4, 0.15 M NaCl, 3 mM EDTA and 0.005% (v/v) Surfactant P20) at a concentration of 1-2 μg/ml, after which the resulting antibodies were injected into a CM5 chip with an anti-human Ig Fc fixed thereto at a flow rate of 30 μl/min for 10-120 seconds, and then captured in a range of 150-200 RU. Each antigen was used after being diluted at 10, 5, 2.5, 1.25, 0.625, 0.3125 and 0.15625 nM, after which the resulting antigens were sequentially injected from a lower concentration. Then, the resulting antigens were injected at a flow rate of 30 μl/min for 5 minutes to carry out binding, after which a running buffer was injected thereinto for 10-15 minutes to carry out a dissociation. 15 μl of 10 mM Glycine-HCl (pH 1.5) was used to revive the chip.

[10] = biological target: T6, human c-Met ECD (ACROBiosystems, MET-H5227) (human, UniProt P08581 25-932); assay: as above
T6 construct: extracellular domain; Bought protein
Experimental: as §2

[11] = biological target: T1, human IGF-I R (R&D systems, 391-GR-050); assay: indirect ELISA, hu8C4 at 30.000 nM
Experimental: as §1

[12] = biological target: T2, human MSP R/Ron (R&D systems, …); assay: indirect ELISA, hu8C4 at 30.000 nM
Experimental: as §1

[13] = biological target: T4, human PDGF Rβ Fc chimera (R&D systems, …); assay: indirect ELISA, hu8C4 at 30.000 nM
Experimental: as §1

[14] = biological target: T1, human IGF-I R (R&D systems, 391-GR-050); assay: indirect ELISA, hu8C4 at 0.048 nM
Experimental: as §1

[15] = biological target: T2, human MSP R/Ron (R&D systems, …); assay: indirect ELISA, hu8C4 at 0.048 nM
Experimental: as §1

[16] = biological target: T7, human c-Met Fc chimera (R&D systems, 358-MT_CF) (human, UniProt P08581 25-932); assay: indirect ELISA, hu8C4 at 0.048 nM
T7 construct: extracellular domain; also called human c-Met (R&D Systems, 358-MT)
Experimental: as §1

[17] = biological target: T4, human PDGF Rβ Fc chimera (R&D systems, …); assay: indirect ELISA, hu8C4 at 0.048 nM
Experimental: as §1

T6 sequence (P08581 25-932): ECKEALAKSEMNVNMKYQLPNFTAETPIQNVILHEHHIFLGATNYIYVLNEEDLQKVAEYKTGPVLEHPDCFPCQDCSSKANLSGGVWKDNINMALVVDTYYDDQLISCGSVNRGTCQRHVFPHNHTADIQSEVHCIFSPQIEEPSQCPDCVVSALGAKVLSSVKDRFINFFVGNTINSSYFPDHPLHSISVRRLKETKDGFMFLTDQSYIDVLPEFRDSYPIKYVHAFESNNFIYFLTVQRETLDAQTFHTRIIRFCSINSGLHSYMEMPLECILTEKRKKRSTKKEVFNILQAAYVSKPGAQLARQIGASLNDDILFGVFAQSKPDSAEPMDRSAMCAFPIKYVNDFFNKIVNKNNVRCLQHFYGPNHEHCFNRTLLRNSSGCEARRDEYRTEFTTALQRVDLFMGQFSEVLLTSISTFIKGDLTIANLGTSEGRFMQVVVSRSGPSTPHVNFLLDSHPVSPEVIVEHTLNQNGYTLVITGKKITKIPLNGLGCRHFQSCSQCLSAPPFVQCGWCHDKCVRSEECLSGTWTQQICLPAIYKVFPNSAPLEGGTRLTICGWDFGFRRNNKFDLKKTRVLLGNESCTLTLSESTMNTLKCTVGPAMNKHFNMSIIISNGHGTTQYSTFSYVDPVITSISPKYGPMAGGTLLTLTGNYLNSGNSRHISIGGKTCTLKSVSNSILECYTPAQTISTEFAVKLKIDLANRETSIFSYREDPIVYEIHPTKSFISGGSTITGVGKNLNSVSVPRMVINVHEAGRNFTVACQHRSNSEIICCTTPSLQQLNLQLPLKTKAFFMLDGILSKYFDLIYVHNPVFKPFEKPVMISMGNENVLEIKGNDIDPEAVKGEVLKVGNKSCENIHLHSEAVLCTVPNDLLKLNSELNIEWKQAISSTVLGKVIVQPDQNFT
T4 sequence (P09619 33-530, change not shown): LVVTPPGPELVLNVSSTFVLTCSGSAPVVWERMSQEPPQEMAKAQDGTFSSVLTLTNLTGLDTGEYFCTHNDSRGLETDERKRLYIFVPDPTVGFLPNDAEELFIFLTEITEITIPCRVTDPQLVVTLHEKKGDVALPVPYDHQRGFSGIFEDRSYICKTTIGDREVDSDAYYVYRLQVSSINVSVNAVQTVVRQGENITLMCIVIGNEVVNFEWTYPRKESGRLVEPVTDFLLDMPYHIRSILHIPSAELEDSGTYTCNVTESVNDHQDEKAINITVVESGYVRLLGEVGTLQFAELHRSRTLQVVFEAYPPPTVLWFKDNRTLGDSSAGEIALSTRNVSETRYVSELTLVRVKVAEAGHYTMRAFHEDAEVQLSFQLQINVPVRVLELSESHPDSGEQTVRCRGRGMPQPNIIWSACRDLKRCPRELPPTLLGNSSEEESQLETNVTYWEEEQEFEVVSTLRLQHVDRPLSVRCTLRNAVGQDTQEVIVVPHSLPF
T5 sequence (A0A2K5UM36 entry or part of it limits assumed): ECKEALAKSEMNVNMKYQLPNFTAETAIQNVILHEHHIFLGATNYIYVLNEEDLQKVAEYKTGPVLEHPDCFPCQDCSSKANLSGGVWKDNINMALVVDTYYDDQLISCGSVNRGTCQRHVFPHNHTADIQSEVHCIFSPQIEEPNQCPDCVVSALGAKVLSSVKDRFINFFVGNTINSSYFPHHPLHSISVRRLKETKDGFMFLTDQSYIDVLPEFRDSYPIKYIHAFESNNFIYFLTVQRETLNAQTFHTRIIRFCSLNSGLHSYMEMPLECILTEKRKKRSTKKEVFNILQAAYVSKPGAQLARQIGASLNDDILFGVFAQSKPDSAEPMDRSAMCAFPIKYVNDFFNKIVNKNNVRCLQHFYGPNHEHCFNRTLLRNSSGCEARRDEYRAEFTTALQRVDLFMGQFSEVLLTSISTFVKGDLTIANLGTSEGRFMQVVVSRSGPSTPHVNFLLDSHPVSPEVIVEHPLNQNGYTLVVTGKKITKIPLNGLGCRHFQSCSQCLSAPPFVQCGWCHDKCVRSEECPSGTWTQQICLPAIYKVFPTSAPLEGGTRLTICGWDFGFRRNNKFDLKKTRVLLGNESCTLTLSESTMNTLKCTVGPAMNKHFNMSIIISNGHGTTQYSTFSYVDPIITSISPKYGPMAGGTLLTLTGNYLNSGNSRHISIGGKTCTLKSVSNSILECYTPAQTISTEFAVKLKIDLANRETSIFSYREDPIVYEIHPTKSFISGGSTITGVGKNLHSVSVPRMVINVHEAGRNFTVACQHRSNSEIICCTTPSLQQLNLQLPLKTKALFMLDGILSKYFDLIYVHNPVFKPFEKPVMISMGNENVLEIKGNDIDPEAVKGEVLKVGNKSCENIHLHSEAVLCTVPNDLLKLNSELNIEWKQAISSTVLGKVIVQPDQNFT
T3 sequence (P35968 20-764, change not shown): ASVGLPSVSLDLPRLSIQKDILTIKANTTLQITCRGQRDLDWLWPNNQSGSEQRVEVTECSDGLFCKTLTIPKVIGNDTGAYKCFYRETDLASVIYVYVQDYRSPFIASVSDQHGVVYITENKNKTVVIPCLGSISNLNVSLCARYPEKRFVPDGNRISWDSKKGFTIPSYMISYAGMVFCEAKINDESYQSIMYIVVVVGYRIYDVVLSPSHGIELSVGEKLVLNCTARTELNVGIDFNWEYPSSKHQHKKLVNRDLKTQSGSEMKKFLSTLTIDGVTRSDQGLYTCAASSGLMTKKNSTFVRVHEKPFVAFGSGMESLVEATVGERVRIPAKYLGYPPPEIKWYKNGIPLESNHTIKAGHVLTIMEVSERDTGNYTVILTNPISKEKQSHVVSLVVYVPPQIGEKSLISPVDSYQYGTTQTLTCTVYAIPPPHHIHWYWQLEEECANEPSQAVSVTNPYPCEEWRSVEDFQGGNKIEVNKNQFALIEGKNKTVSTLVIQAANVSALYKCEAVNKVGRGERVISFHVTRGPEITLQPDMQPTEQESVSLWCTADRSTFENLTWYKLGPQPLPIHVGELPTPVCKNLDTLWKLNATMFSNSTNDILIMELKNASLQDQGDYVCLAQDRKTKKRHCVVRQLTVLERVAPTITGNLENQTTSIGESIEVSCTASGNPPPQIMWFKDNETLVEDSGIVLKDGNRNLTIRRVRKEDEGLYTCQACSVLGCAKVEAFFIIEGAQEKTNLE
T7 sequence (P08581 25-932, change not shown): as the sequence (P08581 25-932) above

A450 nm-A570 nm [1]: 0 A450 nm-A570 nm
A450 nm-A570 nm [2]: 0 A450 nm-A570 nm
A450 nm-A570 nm [3]: -0.01 A450 nm-A570 nm
A450 nm-A570 nm [4]: -0.01 A450 nm-A570 nm
A450 nm-A570 nm [5]: 0 A450 nm-A570 nm
A450 nm-A570 nm [6]: 0 A450 nm-A570 nm
A450 nm-A570 nm [7]: -0.01 A450 nm-A570 nm
A450 nm-A570 nm [8]: -0.01 A450 nm-A570 nm
Kd [9]: 462 pM
koff [9]: 0.000345 s⁻¹
kon [9]: 747000 M⁻¹ s⁻¹
Kd [10]: 317 pM
koff [10]: 0.000215 s⁻¹
kon [10]: 677000 M⁻¹ s⁻¹
A450 nm-A570 nm [11]: 0 A450 nm-A570 nm
A450 nm-A570 nm [12]: 0 A450 nm-A570 nm
A450 nm-A570 nm [13]: 0.01 A450 nm-A570 nm
A450 nm-A570 nm [14]: 0 A450 nm-A570 nm
A450 nm-A570 nm [15]: 0 A450 nm-A570 nm
A450 nm-A570 nm [16]: 0.76 A450 nm-A570 nm
A450 nm-A570 nm [17]: -0.01 A450 nm-A570 nm
B1: hu8C4 (IgG1 humanized antibody having a hinge region of SEQ ID NO: 38 in hu8C4-1) (antibody, V domains shown)
VH: EVQLVESGGGLVQPGGSLRLSCAASGYTFSDYYINWVRQAPGKGLEWIGEIFPGSGNTHFSARFKGRATLSADKSKNTAYLQMNSLRAEDTAVYYCAGGDYGFLYWGQGTLVTVSS
VL: DIQMTQSPSSLSASVGDRVTITCGASENIYGALNWYQQKPGKAPKLLIYGATNLADGVPSRFSGSGSGRDFTFTISSLQPEDIATYYCQNVLSSPYTFGQGTKVEIK
notes: light chain detected with anti-human kappa; also called anti-c-Met antibody hu8C4; hu8C4 monospecific antibody
